Source: IntAct's records for PubMed 30956113

B1: Transmembrane 4 L6 family member 5 (Homo sapiens), O14894 (parent)
chain: MCTGKCARCVGLSLITLCLVCIVANALLLVPNGETSWTNTNHLSLQVWLMGGFIGGGLMVLCPGIAAVRAGGKGCCGAGCCGNRCRMLRSVFSSAFGVLGAIYCLSVSGAGLRNGPRCLMNGEWGYHFEDTAGAYLLNRTLWDRCEAPPRVVPWNVTLFSLLVAASCLEIVLCGIQLVNATIGVFCGDCRKKQDTPH
partner: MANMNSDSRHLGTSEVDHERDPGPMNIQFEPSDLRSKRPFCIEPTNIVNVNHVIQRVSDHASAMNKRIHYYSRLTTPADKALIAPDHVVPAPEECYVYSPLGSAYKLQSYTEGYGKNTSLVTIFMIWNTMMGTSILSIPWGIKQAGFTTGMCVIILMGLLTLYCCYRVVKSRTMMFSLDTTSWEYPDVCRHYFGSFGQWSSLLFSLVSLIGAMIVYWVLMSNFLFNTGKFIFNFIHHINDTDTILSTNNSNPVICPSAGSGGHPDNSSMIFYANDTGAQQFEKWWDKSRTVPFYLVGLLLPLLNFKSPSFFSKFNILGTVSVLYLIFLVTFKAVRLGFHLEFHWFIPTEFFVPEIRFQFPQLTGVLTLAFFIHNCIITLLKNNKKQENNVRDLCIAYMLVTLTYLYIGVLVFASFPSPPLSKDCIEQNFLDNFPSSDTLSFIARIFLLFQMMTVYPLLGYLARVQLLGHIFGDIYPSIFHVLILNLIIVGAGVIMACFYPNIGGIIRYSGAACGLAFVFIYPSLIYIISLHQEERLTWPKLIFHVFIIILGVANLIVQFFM
B2: Transmembrane 4 L6 family member 5 (Homo sapiens), O14894 (parent)
chain: B1 chain
partner: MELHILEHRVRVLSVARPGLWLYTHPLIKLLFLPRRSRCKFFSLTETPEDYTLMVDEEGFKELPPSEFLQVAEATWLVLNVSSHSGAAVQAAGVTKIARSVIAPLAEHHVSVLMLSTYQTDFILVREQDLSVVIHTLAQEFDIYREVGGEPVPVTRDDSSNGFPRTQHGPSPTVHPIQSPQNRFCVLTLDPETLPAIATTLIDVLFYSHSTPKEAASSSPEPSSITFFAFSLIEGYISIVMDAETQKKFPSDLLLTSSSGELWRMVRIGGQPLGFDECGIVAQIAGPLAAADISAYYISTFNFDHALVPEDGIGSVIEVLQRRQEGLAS
B3: Transmembrane 4 L6 family member 5 (Homo sapiens), O14894 (parent)
chain: B1 chain

Variants of: B1
Details: with SLC38A9, Q8NBW4

Variant | effect of a mutation on the interaction
MCTGKCARCVGLSLITLCLVCIVANALLLVPNGETSWTNTNHLSLQVWLMGGFIGGGLMVLCPGIAAVRAGGKGCCGAGCCGNRCRMLRSVFSSAFGVLGAIYCLSVSGAGLRNGPRCLMNGEAGYHFEDTAGAYLLNRTLWDRCEAPPRVVPWNVTLFSLLVAASCLEIVLCGIQLVNATIGVFCGDCRKKQDTPH | with no effect

Variants of: B2
Details: with cast1_human CASTOR1, Q8WTX7

Variant | effect of a mutation on the interaction
MCTGKCARCVGLSLITLCLVCIVANALLLVPNGETSWTNTNHLSLQVWLMGGFIGGGLMVLCPGIAAVRAGGKGCCGAGCCGNRCRMLRSVFSSAFGVLGAIYCLSVSGAGLRNGPRCLMNGEAGYHFEDTAGAYLLNRTLWDRCEAPPRVVPWNVTLFSLLVAASCLEIVLCGIQLVNATIGVFCGDCRKKQDTPH | with no effect

Variants of: B3
Details: with mtor_human MTOR

Variant | effect of a mutation on the interaction
Y126S | with no effect
N138A | with no effect
W124A | with no effect
